Results from the supplement of paper PMC11865577.

What was measured:
Assay in all cases: pull-down binding Z-score (relative to library population); higher = stronger binding
TO-N3 (biotin conjugate) = details: RNA library: Library-2
Method in brief: (§1)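 Streptavidin beads bearing 100 pmol of a biotin-conjugated small molecule were incubated for 60 min at 25 °C with 1 μg of heat-folded, Cy5- or Cy3-end-labelled RNA library in phosphate/NaCl/KCl buffer. Hot SDS eluted the RNA that stayed bound after three washes, and this RNA was hybridised for 20 h at 55.5 °C to a DNA barcode microarray. Binding was expressed as a Z-score against the library mean and standard deviation, after subtraction of a beads-only signal and trimmed averaging of barcoded replicate probes.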

[1] = test system: TO-3-N3-2 (biotin conjugate); details: RNA library: Library-2
Method in brief: as §1

[2] = test system: TO-3-N3 (biotin conjugate); details: RNA library: Library-2
Method in brief: as §1

[3] = test system: TO-N3-2 (biotin conjugate); details: RNA library: Library-2
Method in brief: as §1

[4] = test system: G-clamp-N3 (biotin conjugate); details: RNA library: Library-1 (pre-miRNA loops + repeats)
Method in brief: as §1

UAUAGCUACAUCAGUUAUAACUAUAUCAGUUAAA [hsa-mir-5582]
pull-down binding Z-score (TO-N3 (biotin conjugate)): 1.57 | pull-down binding Z-score [1]: 0.447 | pull-down binding Z-score [2]: 1.67 | pull-down binding Z-score [3]: 0.00457 | pull-down binding Z-score [4]: -1.59

UAUAGGAAGGAAAUCUUAU [hsa-mir-6129]
pull-down binding Z-score (TO-N3 (biotin conjugate)): -0.641 | pull-down binding Z-score [1]: -0.279 | pull-down binding Z-score [2]: -0.671 | pull-down binding Z-score [3]: -0.517 | pull-down binding Z-score [4]: -0.636

UAUAGUGUGUUUGAUUUGCACUGUA [hsa-mir-4703]
pull-down binding Z-score (TO-N3 (biotin conjugate)): -0.424 | pull-down binding Z-score [1]: -0.198 | pull-down binding Z-score [2]: -0.156 | pull-down binding Z-score [3]: -1.07 | pull-down binding Z-score [4]: 0.116

UAUAUACUGAUGUAAUUUUCCUUGGAUUUAUAUGCAGUACUGAG [hsa-mir-6130]
pull-down binding Z-score (TO-N3 (biotin conjugate)): 0.102 | pull-down binding Z-score [1]: 0.252 | pull-down binding Z-score [2]: 0.00904 | pull-down binding Z-score [3]: -0.225 | pull-down binding Z-score [4]: -0.931

UAUAUGCUUUUUAAAUGGGGCACAGA [hsa-mir-5586]
pull-down binding Z-score (TO-N3 (biotin conjugate)): -0.26 | pull-down binding Z-score [1]: 0.0323 | pull-down binding Z-score [2]: -0.275 | pull-down binding Z-score [3]: -0.177 | pull-down binding Z-score [4]: 2

UAUAUUCGGUUUAUUGACAUGGAAUAUA [hsa-mir-381]
pull-down binding Z-score (TO-N3 (biotin conjugate)): 0.706 | pull-down binding Z-score [1]: 0.106 | pull-down binding Z-score [2]: 0.718 | pull-down binding Z-score [3]: -0.284 | pull-down binding Z-score [4]: 2.02

UAUCUAUAUAUAUGUGUA [hsa-mir-3171]
pull-down binding Z-score (TO-N3 (biotin conjugate)): -0.0908 | pull-down binding Z-score [1]: -0.0303 | pull-down binding Z-score [2]: -0.0511 | pull-down binding Z-score [3]: 0.835 | pull-down binding Z-score [4]: -0.471

UAUGAAGGUAAGCAUUUUUGUA [hsa-mir-3935]
pull-down binding Z-score (TO-N3 (biotin conjugate)): -0.614 | pull-down binding Z-score [1]: -0.263 | pull-down binding Z-score [2]: -0.615 | pull-down binding Z-score [3]: -0.419 | pull-down binding Z-score [4]: -0.00708

UAUGACCAGGCCAUAGUAAACAUCAUA [hsa-mir-4744]
pull-down binding Z-score (TO-N3 (biotin conjugate)): -0.247 | pull-down binding Z-score [1]: 0.312 | pull-down binding Z-score [2]: -0.475 | pull-down binding Z-score [3]: -0.124 | pull-down binding Z-score [4]: 1.78

UAUGCAAAGCUCUGACAGUGUUUCACUUGCUA [hsa-mir-7848]
pull-down binding Z-score (TO-N3 (biotin conjugate)): -0.256 | pull-down binding Z-score [1]: -0.145 | pull-down binding Z-score [2]: -0.489 | pull-down binding Z-score [3]: -0.0647 | pull-down binding Z-score [4]: 0.148

UAUGCCAUUAAAAGUAAUGGUAAA [hsa-mir-548aj-1]
pull-down binding Z-score (TO-N3 (biotin conjugate)): -1.23 | pull-down binding Z-score [1]: -0.508 | pull-down binding Z-score [2]: -0.859 | pull-down binding Z-score [3]: -1.2 | pull-down binding Z-score [4]: -0.52

UAUGCCUACAAAAUCCCUCCAGACUGGCAUA [hsa-mir-4666a]
pull-down binding Z-score (TO-N3 (biotin conjugate)): -0.78 | pull-down binding Z-score [1]: -0.346 | pull-down binding Z-score [2]: -0.599 | pull-down binding Z-score [3]: -0.743 | pull-down binding Z-score [4]: -0.858

UAUGUGAUUCUACUGCUCACUCAUAUA [hsa-mir-135a-1]
pull-down binding Z-score (TO-N3 (biotin conjugate)): 0.212 | pull-down binding Z-score [1]: -0.191 | pull-down binding Z-score [2]: 0.402 | pull-down binding Z-score [3]: -0.519 | pull-down binding Z-score [4]: -0.239

UAUUCGCUUUAUUGACUUCGAAUA [hsa-mir-369]
pull-down binding Z-score (TO-N3 (biotin conjugate)): -0.246 | pull-down binding Z-score [1]: -0.144 | pull-down binding Z-score [2]: -0.0221 | pull-down binding Z-score [3]: -0.736 | pull-down binding Z-score [4]: -0.422

UAUUCUCUAU [hsa-mir-2054]
pull-down binding Z-score (TO-N3 (biotin conjugate)): 0.367 | pull-down binding Z-score [1]: -0.276 | pull-down binding Z-score [2]: 0.52 | pull-down binding Z-score [3]: -0.297 | pull-down binding Z-score [4]: -1.01

UAUUCUGAUGUCCAAGUGGAAA [hsa-mir-372]
pull-down binding Z-score (TO-N3 (biotin conjugate)): -0.772 | pull-down binding Z-score [1]: -0.345 | pull-down binding Z-score [2]: -0.733 | pull-down binding Z-score [3]: -0.504 | pull-down binding Z-score [4]: -0.198

UAUUGCAAAGAUUUUCAAUA [hsa-mir-3915]
pull-down binding Z-score (TO-N3 (biotin conjugate)): -0.988 | pull-down binding Z-score [1]: -0.307 | pull-down binding Z-score [2]: -0.611 | pull-down binding Z-score [3]: -1.1 | pull-down binding Z-score [4]: -0.191

UAUUGGGCCAAUUCCCCCAAUG [hsa-mir-4781]
pull-down binding Z-score (TO-N3 (biotin conjugate)): -1.38 | pull-down binding Z-score [1]: -0.791 | pull-down binding Z-score [2]: -1.13 | pull-down binding Z-score [3]: -1.12 | pull-down binding Z-score [4]: -1.57

UAUUGUGUUGAUCAACAAUA [hsa-mir-5590]
pull-down binding Z-score (TO-N3 (biotin conjugate)): -0.668 | pull-down binding Z-score [1]: -0.465 | pull-down binding Z-score [2]: -0.858 | pull-down binding Z-score [3]: -0.668 | pull-down binding Z-score [4]: -0.46

UAUUUCAAAAGACUAGAGGUAGGAAAUGAG [hsa-mir-3975]
pull-down binding Z-score (TO-N3 (biotin conjugate)): -0.42 | pull-down binding Z-score [1]: 0.381 | pull-down binding Z-score [2]: -0.57 | pull-down binding Z-score [3]: -0.211 | pull-down binding Z-score [4]: 2.94

UAUUUUGUUAUUCUGGUCACAGAAUGACCUAGUA [hsa-mir-630]
pull-down binding Z-score (TO-N3 (biotin conjugate)): -0.308 | pull-down binding Z-score [1]: -0.134 | pull-down binding Z-score [2]: 0.141 | pull-down binding Z-score [3]: -1.11 | pull-down binding Z-score [4]: -1.22

UCAAACAAGUUUCCAAAUUGUUUGA [hsa-mir-488]
pull-down binding Z-score (TO-N3 (biotin conjugate)): 0.194 | pull-down binding Z-score [1]: -0.496 | pull-down binding Z-score [2]: 0.554 | pull-down binding Z-score [3]: -1.02 | pull-down binding Z-score [4]: -0.178

UCACAAUUGCGCUACAGAACUGUUGA [hsa-mir-203b]
pull-down binding Z-score (TO-N3 (biotin conjugate)): 1.12 | pull-down binding Z-score [1]: 0.314 | pull-down binding Z-score [2]: 0.859 | pull-down binding Z-score [3]: 0.308 | pull-down binding Z-score [4]: 0.254

UCACAGGGCUCAGGGAAUGUGUCUGCACCUGUGA [hsa-mir-587]
pull-down binding Z-score (TO-N3 (biotin conjugate)): 0.469 | pull-down binding Z-score [1]: 0.0576 | pull-down binding Z-score [2]: 0.431 | pull-down binding Z-score [3]: 0.206 | pull-down binding Z-score [4]: 0.296

UCACAGUUGGUUUCUGACACGUGG [hsa-mir-4535]
pull-down binding Z-score (TO-N3 (biotin conjugate)): 0.305 | pull-down binding Z-score [1]: -0.0393 | pull-down binding Z-score [2]: 0.237 | pull-down binding Z-score [3]: -0.0476 | pull-down binding Z-score [4]: 0.283

UCACUGCUGCUGGCGCCCUGA [hsa-mir-943]
pull-down binding Z-score (TO-N3 (biotin conjugate)): 0.432 | pull-down binding Z-score [1]: 0.0365 | pull-down binding Z-score [2]: 0.0735 | pull-down binding Z-score [3]: 0.911 | pull-down binding Z-score [4]: -0.764

UCACUGUGAACAGUCUCAGUCAGUGA [hsa-mir-183]
pull-down binding Z-score (TO-N3 (biotin conjugate)): -0.919 | pull-down binding Z-score [1]: -0.331 | pull-down binding Z-score [2]: -0.81 | pull-down binding Z-score [3]: -0.631 | pull-down binding Z-score [4]: -0.0454

UCAGACACAUCAGAUCCCUUAUCUGUAAAAUGGGCAUGA [hsa-mir-640]
pull-down binding Z-score (TO-N3 (biotin conjugate)): 0.00353 | pull-down binding Z-score [1]: -0.013 | pull-down binding Z-score [2]: -0.19 | pull-down binding Z-score [3]: 0.521 | pull-down binding Z-score [4]: 0.152

UCAGAUAUUUAAGUUAACAGUAUUUGA [hsa-mir-580]
pull-down binding Z-score (TO-N3 (biotin conjugate)): -1.1 | pull-down binding Z-score [1]: -0.347 | pull-down binding Z-score [2]: -0.784 | pull-down binding Z-score [3]: -1.5 | pull-down binding Z-score [4]: 0.0815

UCAGCACCUGAACGCCAAGGCUGG [hsa-mir-3150a]
pull-down binding Z-score (TO-N3 (biotin conjugate)): -0.348 | pull-down binding Z-score [1]: -0.591 | pull-down binding Z-score [2]: -0.481 | pull-down binding Z-score [3]: 0.123 | pull-down binding Z-score [4]: 0.168

UCAGCCCCAUAUGUAUCUGAAGGCUGA [hsa-mir-5694]
pull-down binding Z-score (TO-N3 (biotin conjugate)): -0.337 | pull-down binding Z-score [1]: -0.286 | pull-down binding Z-score [2]: -0.404 | pull-down binding Z-score [3]: 0.0924 | pull-down binding Z-score [4]: -0.92

UCAGCUGUAAUACAUGGAUUGGCUGG [hsa-mir-30b]
pull-down binding Z-score (TO-N3 (biotin conjugate)): -0.379 | pull-down binding Z-score [1]: -0.198 | pull-down binding Z-score [2]: -0.368 | pull-down binding Z-score [3]: -0.252 | pull-down binding Z-score [4]: 0.592

UCAGCUGUGAGCUCAAGGUGGCUGG [hsa-mir-30c-1]
pull-down binding Z-score (TO-N3 (biotin conjugate)): 0.804 | pull-down binding Z-score [1]: 0.093 | pull-down binding Z-score [2]: 0.424 | pull-down binding Z-score [3]: 0.98 | pull-down binding Z-score [4]: 1.32

UCAGCUGUGGAAAGUAAGAAAGCUGG [hsa-mir-30c-2]
pull-down binding Z-score (TO-N3 (biotin conjugate)): 1.28 | pull-down binding Z-score [1]: 1.22 | pull-down binding Z-score [2]: 0.97 | pull-down binding Z-score [3]: 1.31 | pull-down binding Z-score [4]: -0.0598

UCAGGAUCUACUCAUGUCGUCUUUGG [hsa-mir-573]
pull-down binding Z-score (TO-N3 (biotin conjugate)): -0.165 | pull-down binding Z-score [1]: -0.199 | pull-down binding Z-score [2]: -0.404 | pull-down binding Z-score [3]: 0.472 | pull-down binding Z-score [4]: -1.01

UCAGGCUUUAAUGUUUGAAGUAAUGUCAGU [hsa-mir-6874]
pull-down binding Z-score (TO-N3 (biotin conjugate)): 0.555 | pull-down binding Z-score [1]: 0.146 | pull-down binding Z-score [2]: 0.511 | pull-down binding Z-score [3]: 0.228 | pull-down binding Z-score [4]: 0.286

UCAGGGAGAAAGUGCAUACAGCCCCUG [hsa-mir-328]
pull-down binding Z-score (TO-N3 (biotin conjugate)): -0.112 | pull-down binding Z-score [1]: -0.166 | pull-down binding Z-score [2]: -0.47 | pull-down binding Z-score [3]: 0.36 | pull-down binding Z-score [4]: -0.344

UCAGGUGAAUGUGUCUGG [hsa-mir-3916]
pull-down binding Z-score (TO-N3 (biotin conjugate)): -0.773 | pull-down binding Z-score [1]: -0.427 | pull-down binding Z-score [2]: -0.539 | pull-down binding Z-score [3]: -0.347 | pull-down binding Z-score [4]: -1.06
